Values of other authors as cited in article PMC9038201.

Target: ubiquitin (Homo sapiens) (UniProt P0CG47)

PLpro (from UniProt P0DTD1)
Kd: 120 µM
